Data on 1 molecule can be found in paper PMC10921760 (ACS sensors, 2023).

The target of the assay is Recombinant Human Integrin α4β1 Protein, CF (human, UniProt P13612 35-977; P05556 21-728). The experiment in a line: surface enhanced Raman spectroscopy.
Sequence of Recombinant Human Integrin α4β1 Protein, CF (P13612 35-977, chain 1 of 2): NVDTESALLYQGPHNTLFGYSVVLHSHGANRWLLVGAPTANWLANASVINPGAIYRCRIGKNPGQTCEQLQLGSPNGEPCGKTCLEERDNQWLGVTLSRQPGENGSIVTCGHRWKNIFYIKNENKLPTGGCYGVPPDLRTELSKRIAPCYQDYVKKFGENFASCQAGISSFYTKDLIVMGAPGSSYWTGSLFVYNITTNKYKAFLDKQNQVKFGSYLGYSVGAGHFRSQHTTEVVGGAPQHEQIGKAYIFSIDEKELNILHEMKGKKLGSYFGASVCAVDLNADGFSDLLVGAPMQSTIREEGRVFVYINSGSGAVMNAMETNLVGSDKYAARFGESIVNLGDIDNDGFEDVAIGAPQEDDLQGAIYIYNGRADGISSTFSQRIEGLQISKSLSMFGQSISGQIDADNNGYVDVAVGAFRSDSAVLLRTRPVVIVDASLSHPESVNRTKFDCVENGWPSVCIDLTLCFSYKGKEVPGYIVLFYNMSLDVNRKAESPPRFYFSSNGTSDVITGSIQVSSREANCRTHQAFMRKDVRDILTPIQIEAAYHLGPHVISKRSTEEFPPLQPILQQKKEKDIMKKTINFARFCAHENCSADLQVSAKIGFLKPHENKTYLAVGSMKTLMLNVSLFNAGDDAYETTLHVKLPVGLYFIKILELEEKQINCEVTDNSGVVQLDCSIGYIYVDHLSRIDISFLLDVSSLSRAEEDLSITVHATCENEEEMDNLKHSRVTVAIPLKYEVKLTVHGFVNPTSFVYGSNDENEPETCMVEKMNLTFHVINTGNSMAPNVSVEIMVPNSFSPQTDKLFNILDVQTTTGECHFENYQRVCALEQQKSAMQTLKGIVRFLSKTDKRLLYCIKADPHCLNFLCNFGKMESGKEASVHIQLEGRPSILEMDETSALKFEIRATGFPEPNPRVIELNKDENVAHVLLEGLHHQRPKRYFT
Sequence of Recombinant Human Integrin α4β1 Protein, CF (P05556 21-728, chain 2 of 2): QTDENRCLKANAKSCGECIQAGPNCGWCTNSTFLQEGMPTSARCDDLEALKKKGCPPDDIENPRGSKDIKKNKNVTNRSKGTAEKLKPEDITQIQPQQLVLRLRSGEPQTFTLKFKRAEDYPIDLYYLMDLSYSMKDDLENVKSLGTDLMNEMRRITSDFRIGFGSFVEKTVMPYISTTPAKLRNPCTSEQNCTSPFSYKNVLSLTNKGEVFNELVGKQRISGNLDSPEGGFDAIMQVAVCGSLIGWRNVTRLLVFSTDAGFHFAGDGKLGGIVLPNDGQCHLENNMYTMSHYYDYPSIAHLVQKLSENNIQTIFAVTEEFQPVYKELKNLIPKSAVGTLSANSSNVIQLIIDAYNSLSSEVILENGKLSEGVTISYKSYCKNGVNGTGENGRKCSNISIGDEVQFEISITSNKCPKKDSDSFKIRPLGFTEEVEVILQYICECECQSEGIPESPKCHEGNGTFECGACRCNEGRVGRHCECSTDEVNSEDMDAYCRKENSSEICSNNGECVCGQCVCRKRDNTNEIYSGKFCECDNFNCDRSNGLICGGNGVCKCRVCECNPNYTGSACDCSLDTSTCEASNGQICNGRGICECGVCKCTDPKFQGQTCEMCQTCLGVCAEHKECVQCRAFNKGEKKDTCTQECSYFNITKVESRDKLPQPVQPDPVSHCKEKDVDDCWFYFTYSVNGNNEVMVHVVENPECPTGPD

B1: Cys-Asp-Pro-Gly-Tyr-Ile-Gly-Ser-Arg (CDPGYIGSR) (peptide)
peptide: CDPGYIGSR
modifications: not fully specified; functionalized onto gold coated magnetic nanoparticles (thiol chemistry of the Cys)
As for B1, the binding result was “binds”.
